The text below walks through data of PMC9071441.

The target in this test is mNeonGreen-tagged T-bet DNA binding domain (aa 135-326) Q160A (mouse) (UniProt Q9JKD8). The test can be described thus: FRET or BRET; flow-cytometric FRET in HEK293T cells co-transfected with 730 ng of each vector for mTagBFP- and mNeonGreen-tagged proteins; read 32 hours after transfection; 405 nm laser line, 530/30 bandpass filter; DFRET efficiency. For orientation: BRET reads energy transfer from a luciferase to a nearby fluorophore.
mNeonGreen-tagged T-bet DNA binding domain (aa 135-326) Q160A (mouse), sequence (Q9JKD8 135-326, stated change not applied): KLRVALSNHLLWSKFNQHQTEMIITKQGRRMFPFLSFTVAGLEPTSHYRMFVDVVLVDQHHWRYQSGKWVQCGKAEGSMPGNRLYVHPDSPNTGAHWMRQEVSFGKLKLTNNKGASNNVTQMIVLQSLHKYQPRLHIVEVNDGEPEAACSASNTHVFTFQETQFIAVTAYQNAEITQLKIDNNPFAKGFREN

mTagBFP-tagged GATA3 DNA binding domain (aa 259-369), sequence (P23772 259-369): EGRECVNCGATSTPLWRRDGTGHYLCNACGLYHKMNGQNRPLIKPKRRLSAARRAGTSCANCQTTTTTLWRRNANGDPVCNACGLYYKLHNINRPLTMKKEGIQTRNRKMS

For “mTagBFP-tagged GATA3 DNA binding domain (aa 259-369) (from UniProt P23772 259-369) (domain or fragment)”, the reduction of the FRET interaction signal against WT T-bet DBD was determined as 50%.
